Columns and labels:
[1] = molecular target: Mycobacterium leprae small heat shock protein (sHsp18) (Mycobacterium leprae); test: SEC; as a1 but after extended dialysis against PBS; data not shown
[2] = molecular target: Mycobacterium leprae small heat shock protein (sHsp18) (Mycobacterium leprae); test: native gel or EMSA; non-denaturing 7.5% polyacrylamide gel of MagneHis-purified sHsp18, against high molecular weight markers, Coomassie stain
[3] = molecular target: Mycobacterium leprae small heat shock protein (sHsp18) (Mycobacterium leprae); test: SEC; Sephacryl column; sHsp18 purified by denaturing method, dialysed against 50 mM PBS with 200 mM NaCl, pH 7.2, 4°C, 6 hrs, acetone precipitated, resuspended in PBS

Substance: Mycobacterium leprae small heat shock protein (sHsp18) (natural protein)
- stoichiometry N [1]: 9
- stoichiometry N [2]: 9
- stoichiometry N [3]: 6
